{
  "source": "patent EP0672136B1",
  "about": "“POLYPEPTIDES, DERIVED FROM ENDONEXIN 2, HAVING HEPATITIS B VIRUS RECEPTOR ACTIVITY AND THEIR USE IN DIAGNOSTIC AND PHARMACEUTICAL COMPOSITIONS” (priority 1992, dated 1994)",
  "biological_target": "T1, major HBsAg (Hepatitis B virus genotype A2 subtype adw2, UniProt P03141)",
  "T1 construct": "purchased Merck Sharp and Dohme Laboratories (gift of Dr. W. J. Miller, not bought); host or cells: yeast",
  "T1 sequence (P03141 175-400)": "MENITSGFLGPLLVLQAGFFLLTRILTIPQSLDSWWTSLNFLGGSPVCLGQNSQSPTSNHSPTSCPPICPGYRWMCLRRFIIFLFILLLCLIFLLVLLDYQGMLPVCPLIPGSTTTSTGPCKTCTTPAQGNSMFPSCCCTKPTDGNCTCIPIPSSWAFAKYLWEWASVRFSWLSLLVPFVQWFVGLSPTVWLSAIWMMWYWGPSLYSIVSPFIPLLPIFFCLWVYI",
  "assay": "Binding of radiolabeled endonexin II to immobilized major HBsAg in the presence of endonexin II peptide fractions (F-peak inhibition assay)",
  "design": "species or system HBV",
  "settings": "fractions of acid-hydrolysed human liver endonexin-II; triplicate; Figure 23A",
  "description": "Purified endonexin-II was treated according to the method as described in example 3. (Hydrolysis in 3% formic acid at 112°C for 4h). After treatment with formic acid, the protein digest was separated by reversed phase HPLC on a Vydac C-4 column (2.1 x 250 mm, Hesperia, CA, USA) as described in example 3. Peptide peaks were registered on a chart recorder and collected manually.\nBinding experiments were performed according to the method as described in example 1 and 5. However, binding of radiolabeled endonexin-II to immobilized major HBsAg was carried out in the presence of individual peak fractions of unlabeled digested human liver endonexin-II (see above). The experiment was performed in triplicate. […] Therefore, these peptide was considered as one of the important major HBsAg-binding epitopes on endonexin-II. By sequencing an identical peak fraction in a parallel experiment, peptides corresponding to peaks F and S were determined as amino acids 266 to 280 (peak F, DHTLIRVMVSRSEID) and amino acids 92-138 (peak S): […]) of human endonexin II (numbering according to Kaplan et al., 1988).",
  "data": [
    {"sequence": "DEEKFITIFGTRSVSHLRKVFDKYMTISGFQIEETI [peak L, region encompassing amino acids 190 to 225 of human endonexin]", "values": [
      {"measurement": "inhibition of binding of radiolabeled endonexin-II to major HBsAg by HPLC peak fraction", "result": "slightly lower binding inhibition capacity"}
    ]}
  ]
}
